This note sets out measurements from article PMC3875364.

Like-named read-outs stand apart in the source and are kept apart here.

Holding throughout (experiment): fluorescence anisotropy
On the technique in general: In fluorescence polarisation assays a small probe gives low polarisation when free and higher when bound to something large.

Data set [1] concerns the target T1, NC(1-55) WT, zinc-bound (HIV-1 (NL4-3 isolate), UniProt P12493 378-432).
Data set [2] deals with T1, NC(1-55) WT, zinc-bound. The source holds these as a separate data set.
A further data set addresses T2, NC(1-28) (HIV-1 (NL4-3 isolate), UniProt P12493 378-405).
T2 chain: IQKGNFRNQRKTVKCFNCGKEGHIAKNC

The target of another data set is T3, NC(1-35) (HIV-1 (NL4-3 isolate), UniProt P12493 378-412).
T3 chain: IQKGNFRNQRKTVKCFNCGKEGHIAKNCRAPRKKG

Another data set addresses NC(29-55) (HIV-1 (NL4-3 isolate), UniProt P12493 406-432).

On to CTTCTTTGGGAGTGAATTAG (ssDNA) [5'-FAM-DNA20], for which the Kd (usually the concentration at which binding is half-saturated) in the data set with NC(1-55) WT, zinc-bound [1] came out at 16 ± 5 nM; in the data set with NC(1-55) WT, zinc-bound [2], 57 ± 22 nM; in the data set with NC(1-28), 731 ± 150 nM; with NC(1-35), 86 ± 19 nM; with NC(29-55), 867 ± 3 nM.
